The values below come from the supplement of paper PMC10567573.

± gives the standard deviation.

The nature of the data set: protein stability index of a GFP-peptide fusion (GPS, HEK-293T) (PSI 1-6); higher = more stable. The following applies: c terminus: a fixed tail appended.
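Further: 24-mer peptide tiles fused after GFP, lentivirally expressed, FACS-sorted into six equal bins by GFP/DsRed ratio, decoded by Illumina sequencing, PSI is the read-weighted mean bin number.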

As to GLADVEANYVIVRAYQYTTLTSVQ [SLC35F2], the protein stability index runs as follows: (treatment: DMSO) 2.24 ± 0.53; (treatment: MLN4924 1 uM, 8 h) 2.66 ± 0.43.
For GLPGKVFACLSVLFVTVTAVNLSV [KCNG1] the same measures were 3.36 ± 0.17 and 3.053 ± 0.022.
On the same counts, the results for GLSGSGVAFVCAFSEALAEGAVKM [PYCR3] are 2.58 ± 0.65 and 2.25 ± 0.34.
On the same counts, the results for GMLAPAAGPAFDSDPEISDVDEDE [PPFIA4] are 5.35 ± 0.73 and 5.54 ± 0.24.
Regarding GNGKNLVDFTFVENVVHGHILAAE [NSDHL], the protein stability index is, setting by setting: (treatment: DMSO) 3.08 ± 0.36; (treatment: MLN4924 1 uM, 8 h) 2.91 ± 0.51.
As for GNLEVGEPQSEPVRVLDMVAKLES [FBXO34], the protein stability index was found to be 5.01 ± 0.34 (treatment: DMSO) and 4.87 ± 0.2 (treatment: MLN4924 1 uM, 8 h).
As to GPAAFVDYFERNWEPRRDMWVRFR [ZSWIM9], the protein stability index runs as follows: (treatment: DMSO) 2.4 ± 0.12; (treatment: MLN4924 1 uM, 8 h) 2.46 ± 0.37.
Regarding GPALAGEPAGSLRELGVWRSLLRL [C2CD2L], the protein stability index came out at 2.66 ± 0.23 (treatment: DMSO) and 2.56 ± 0.03 (treatment: MLN4924 1 uM, 8 h).
As to GPLGDCLRDWEDLQQDFQNIQETH [TMEM120A], the protein stability index is, setting by setting: (treatment: DMSO) 4.63 ± 0.31; (treatment: MLN4924 1 uM, 8 h) 4.41 ± 0.32.
On the same counts, the results for GPVRSSSGMGGRAPVSRGRDSYGG [RBMX] are 4.32 ± 0.12 and 4.53 ± 0.17.
Take GPYEGGGPVAGLDDSGGPTPSSYA [ZBTB22]: the protein stability index reads like this: (treatment: DMSO) 4.95 ± 0.24; (treatment: MLN4924 1 uM, 8 h) 4.97 ± 0.17.
On the same counts, the results for GQTGTRLTPADKAEHMKRQRHPRL [AUP1] are 4.32 ± 0.18 and 4.6 ± 0.075.
On the same counts, the results for GRGSLSSGGQTSWDSGCLAPPSTR [PLEKHN1] are 4.44 ± 0.24 and 4.15 ± 0.35.
For GSDKQQQQQHIECVVCGDKSSGKH [NR2F2] the same measures were 4.93 ± 0.35 and 5.07 ± 0.18.
Turning to GSLYVFGGTTGYIYSTDLHKLDLN [KLHDC10], the protein stability index is 2.4 ± 0.5 (treatment: DMSO) and 2.66 ± 0.46 (treatment: MLN4924 1 uM, 8 h).
Under “treatment: MLN4924 1 uM, 8 h”, GSMKIKSSWDIDGRATKRRKKSGD [FBXO34] registered a protein stability index of 4.34 ± 0.81.
Consider GSNPSSSNSSQDSLHKGAKRKGIK [PPFIA4], for which the protein stability index is 5.14 ± 0.69 (treatment: DMSO) and 5.53 ± 0.35 (treatment: MLN4924 1 uM, 8 h).
For GSSSFSLKGYPSLMRSQSPKAQPQ [TRIM29] the same measures were 3.76 ± 0.26 and 3.73 ± 0.28.
On the same counts, the results for GSVLRIQPLRTPRDEAIYECVASN [PTPRD] are 3.24 ± 0.12 and 3.17 ± 0.43.
For GTDQVCVLEWGAEGVAGKSGLEKE [FCHSD1] the same measures were 5.01 ± 0.25 and 5.07 ± 0.15.
For GTEYTCKVYPVQEALAVLEPYARL [TRIB3], the protein stability index is, setting by setting: (treatment: DMSO) 2.62 ± 0.23; (treatment: MLN4924 1 uM, 8 h) 2.48 ± 0.33.
For GVGTSMEGASPLSERCQRQLQSLC [FANCE] the same measures were 3.9 ± 0.16 and 3.78 ± 0.15.
In turn, GVILHSLKTQSLEGKRKAFYTCAS [OR4A15] gave a protein stability index (treatment: DMSO) of 2.48 ± 0.27 and a protein stability index (treatment: MLN4924 1 uM, 8 h) of 2.19 ± 0.27.
Regarding GYGGSRDSYSSSRSDLYSSGRDRV [RBMX], the protein stability index runs as follows: (treatment: DMSO) 3.828 ± 0.029; (treatment: MLN4924 1 uM, 8 h) 3.99 ± 0.37.
Take HASSYISPEKEEQYIAQFTSQFLS [PRAME]: the protein stability index came out at 3.06 ± 0.44 (treatment: DMSO) and 3.31 ± 0.27 (treatment: MLN4924 1 uM, 8 h).
On the same counts, the results for HDGSSYLNSVERYDPKTNQWSSDV [KLHL20] are 4.46 ± 0.25 and 4.27 ± 0.4.
On to HDSVVEMIRKGGDQTSLLVVDKET [PDZK1], for which, for the setting “treatment: MLN4924 1 uM, 8 h”, the protein stability index amounted to 4.76 ± 0.33.
In the case of HESFFSLFSDPRSTRLTRIHLRED [ZER1], the protein stability index turned out to be 3.04 ± 0.26 (treatment: DMSO) and 3.14 ± 0.11 (treatment: MLN4924 1 uM, 8 h).
For the sequence HFHRTLKEACDQHGPDLYPKFKKW [CPOX], the protein stability index worked out at 2.49 ± 0.21 (treatment: DMSO) and 2.75 ± 0.14 (treatment: MLN4924 1 uM, 8 h).
For HFQDNLHSVNRDLNELERLSNLVG [MED27] the same measures were 3.47 ± 0.19 and 3.52 ± 0.36.
As for HGEADRSTLKKALPTLSHIQEAQS [YJU2B], the protein stability index runs as follows: (treatment: DMSO) 4.81 ± 0.3; (treatment: MLN4924 1 uM, 8 h) 4.7 ± 0.21.
Take HGFLFMIFQIGVLGFGPTYVVLAY [SOAT1]: the protein stability index was 2.86 ± 0.85 (treatment: DMSO) and 2.71 ± 0.8 (treatment: MLN4924 1 uM, 8 h).
For HGIRPPQLEQPEKMPVLKAEASHY [RHOBTB3] the same measures were 4.41 ± 0.11 and 4.41 ± 0.2.
For HGSQGTYSNTKENGINGELTSADR [MAP2] the same measures were 5.11 ± 0.24 and 5.17 ± 0.22.
For HGVRAKVQPQARKKEMEMRQLQRG [CPN1] the same measures were 4.38 ± 0.38 and 4.5 ± 0.25.
As to HHRVQENQMDKARRHPQGAWKELD [CHGB], the protein stability index came to 4.45 ± 0.11 (treatment: DMSO) and 4.4 ± 0.11 (treatment: MLN4924 1 uM, 8 h).
On the same counts, the results for HIIRIGDLKPTGEIPKQVKVKKLK [DENND6A] are 2.73 ± 0.2 and 3.12 ± 0.19.
Take HLESKDINQEELRALEEVEMKLQK [C10orf62]: the protein stability index is, setting by setting: (treatment: DMSO) 5.31 ± 0.32; (treatment: MLN4924 1 uM, 8 h) 5.34 ± 0.24.
Regarding HLKRHFMFRNHLCLVFELLSYNLY [DYRK1B], the protein stability index by setting is: (treatment: DMSO) 3.34 ± 0.23; (treatment: MLN4924 1 uM, 8 h) 3.29 ± 0.88.
On the same counts, the results for HLSPLVVHRQLSHLYAEPQKSPWC [ESR2] are 2.51 ± 0.36 and 2.79 ± 0.36.
For HNRSNNKYSYTSTSDDNLLKNIEL [KCTD13] the same measures were 3.66 ± 0.12 and 3.73 ± 0.16.
For HPYSTTFQESASTPETRAKFTQDN [TEKT4], the protein stability index runs as follows: (treatment: DMSO) 4.54 ± 0.13; (treatment: MLN4924 1 uM, 8 h) 4.67 ± 0.31.
For HQLDFVQVKASSPVPATPILQLEE [TRIM9] the same measures were 4.54 ± 0.094 and 4.49 ± 0.33.
For HQYWPAERSARYQYFVVDPMAEYN [PTPRD], the protein stability index by setting is: (treatment: DMSO) 2.4 ± 0.19; (treatment: MLN4924 1 uM, 8 h) 2.51 ± 0.32.
For HRHTSHLGHAVLPSNARGPILSRS [SPRY1] the same measures were 3.69 ± 0.14 and 3.94 ± 0.13.
Take HSGSVVGAGLPQFQSISLRKIQFN [CLCN6]: the protein stability index is, setting by setting: (treatment: DMSO) 2.85 ± 0.24; (treatment: MLN4924 1 uM, 8 h) 3 ± 0.27.
Sequence HSMKPHPAITATLLDFMCRIIPNF [INTS3] came in with a protein stability index (treatment: DMSO) of 2.96 ± 0.45 and a protein stability index (treatment: MLN4924 1 uM, 8 h) of 3 ± 0.88.
For HSTTPSGPGDEVARGIAGEKFDIV [ARFIP2] the same measures were 4.75 ± 0.34 and 4.64 ± 0.15.
Consider HTGEPLFSGSNEVDQMNRIVEVLG [DYRK1B], for which the protein stability index runs as follows: (treatment: DMSO) 3.59 ± 0.21; (treatment: MLN4924 1 uM, 8 h) 3.57 ± 0.25.
For HTNCFELSIYVGCDKYPHESQLPE [CPXM2], the protein stability index runs as follows: (treatment: DMSO) 2.54 ± 0.34; (treatment: MLN4924 1 uM, 8 h) 2.44 ± 0.051.
HTPAGAAVSAMKCGLLPISPEALS [ADD1] had a protein stability index (treatment: DMSO) of 3.13 ± 0.25 and a protein stability index (treatment: MLN4924 1 uM, 8 h) of 3.29 ± 0.32.
On the same counts, the results for HTVPDFHLSSPAKNFFKKAAAALF [PLK2] are 2.74 ± 0.96 and 2.65 ± 0.73.
As to HVFQRQKSELSDGIAILVGSNDRV [TRIM55], the protein stability index turned out to be 3.18 ± 0.25 (treatment: DMSO) and 3.21 ± 0.21 (treatment: MLN4924 1 uM, 8 h).
In the case of HVMGLYPDLLPTDYRKQLQYPNPL [VPS39], the protein stability index reads like this: (treatment: DMSO) 2.34 ± 0.28; (treatment: MLN4924 1 uM, 8 h) 2.59 ± 0.24.
For HYGNIMYDRRVIRGNTYALQTGPL [RSPH3] the same measures were 2.33 ± 0.1 and 2.13 ± 0.32.
On the same counts, the results for ICELVMALDYLQNQRIIHRDMKPD [STK32A] are 2.62 ± 0.64 and 2.44 ± 0.5.
On the same counts, the results for ICPKCWTLMTMAIRIIDRALKEDF [PRIM1] are 2.25 ± 0.26 and 2.57 ± 0.37.
As for ICPLKERRFGAVACGVAMELYVFG [GAN], the protein stability index by setting is: (treatment: DMSO) 2.36 ± 0.53; (treatment: MLN4924 1 uM, 8 h) 2.96 ± 1.1.
For IDNTTVIYNSNIFTDPFFIVETLC [KCNA1] the same measures were 2.72 ± 0.67 and 2.53 ± 0.37.
For IEKTGGVEAVKNELRRQAPPPPPP [WASL] the same measures were 4.492 ± 0.027 and 4.46 ± 0.58.
IGESMYGDFEEAFDHLQNRLIATK [TENT5C] came in with a protein stability index (treatment: DMSO) of 3.63 ± 0.12 and a protein stability index (treatment: MLN4924 1 uM, 8 h) of 3.59 ± 0.067.
On to IGGHLVRDNDHPDHSSRELSKILA [FUT8], for which the protein stability index turned out to be 3.92 ± 0.19 (treatment: DMSO) and 3.9 ± 0.18 (treatment: MLN4924 1 uM, 8 h).
For IISKPVPQTLIMAYDYAKEVNSAE [FEM1C] the same measures were 2.93 ± 0.34 and 2.81 ± 0.16.
On the same counts, the results for IKDLSVVHSDLSSIVILDNSPGAY [CTDNEP1] are 2.49 ± 0.23 and 2.48 ± 0.3.
For ILGETQEEEDEILPRKDYESLDYD [CLCN6] the same measures were 5.33 ± 0.2 and 5.18 ± 0.086.
For the sequence ILHTAWHPSENIIAVAATNNLYIF [PPP2R2B], the protein stability index (treatment: DMSO) is 3.17 ± 0.04.
As to ILKNLSQVAMRCRCSSMHFLVAEW [SAT1], the protein stability index was determined as 2.4 ± 0.2 (treatment: DMSO) and 2.65 ± 0.31 (treatment: MLN4924 1 uM, 8 h).
ILNLKKKECKDRGFEYDGKINAWD [NLN] gave a protein stability index (treatment: DMSO) of 2.97 ± 0.26 and a protein stability index (treatment: MLN4924 1 uM, 8 h) of 3.43 ± 0.6.
For ILSGHEHAVSTCHFCVDDTKLLSG [WDR88] the same measures were 2.71 ± 0.35 and 2.92 ± 0.35.
For IMNDLSNRVWSISQEPDPVQRLQA [TRIM14] the same measures were 3.16 ± 0.31 and 3.16 ± 0.17.
INGLQAWLLTHLLWFANAHLLSWF [DHCR7] registered a protein stability index (treatment: DMSO) of 3.18 ± 0.3 and a protein stability index (treatment: MLN4924 1 uM, 8 h) of 3.07 ± 0.44.
On the same counts, the results for INSTAPFEEQENYFLLCDVLPEDR [ZNF277] are 3.92 ± 0.36 and 4.12 ± 0.18.
On the same counts, the results for INVWDVLKGSRVSILFGHENRVST [GNB5] are 2.31 ± 0.33 and 2.27 ± 0.34.
